Source: US20170355757A1 (Regeneron, published 2017)

T1: monkey C5-mmh (monkey, UniProt P01031 19-1676 (human entry), limits assumed)
T1 construct: Recombinant monkey C5 with a C-terminal myc-myc-hexahistidine tag
T1 chain: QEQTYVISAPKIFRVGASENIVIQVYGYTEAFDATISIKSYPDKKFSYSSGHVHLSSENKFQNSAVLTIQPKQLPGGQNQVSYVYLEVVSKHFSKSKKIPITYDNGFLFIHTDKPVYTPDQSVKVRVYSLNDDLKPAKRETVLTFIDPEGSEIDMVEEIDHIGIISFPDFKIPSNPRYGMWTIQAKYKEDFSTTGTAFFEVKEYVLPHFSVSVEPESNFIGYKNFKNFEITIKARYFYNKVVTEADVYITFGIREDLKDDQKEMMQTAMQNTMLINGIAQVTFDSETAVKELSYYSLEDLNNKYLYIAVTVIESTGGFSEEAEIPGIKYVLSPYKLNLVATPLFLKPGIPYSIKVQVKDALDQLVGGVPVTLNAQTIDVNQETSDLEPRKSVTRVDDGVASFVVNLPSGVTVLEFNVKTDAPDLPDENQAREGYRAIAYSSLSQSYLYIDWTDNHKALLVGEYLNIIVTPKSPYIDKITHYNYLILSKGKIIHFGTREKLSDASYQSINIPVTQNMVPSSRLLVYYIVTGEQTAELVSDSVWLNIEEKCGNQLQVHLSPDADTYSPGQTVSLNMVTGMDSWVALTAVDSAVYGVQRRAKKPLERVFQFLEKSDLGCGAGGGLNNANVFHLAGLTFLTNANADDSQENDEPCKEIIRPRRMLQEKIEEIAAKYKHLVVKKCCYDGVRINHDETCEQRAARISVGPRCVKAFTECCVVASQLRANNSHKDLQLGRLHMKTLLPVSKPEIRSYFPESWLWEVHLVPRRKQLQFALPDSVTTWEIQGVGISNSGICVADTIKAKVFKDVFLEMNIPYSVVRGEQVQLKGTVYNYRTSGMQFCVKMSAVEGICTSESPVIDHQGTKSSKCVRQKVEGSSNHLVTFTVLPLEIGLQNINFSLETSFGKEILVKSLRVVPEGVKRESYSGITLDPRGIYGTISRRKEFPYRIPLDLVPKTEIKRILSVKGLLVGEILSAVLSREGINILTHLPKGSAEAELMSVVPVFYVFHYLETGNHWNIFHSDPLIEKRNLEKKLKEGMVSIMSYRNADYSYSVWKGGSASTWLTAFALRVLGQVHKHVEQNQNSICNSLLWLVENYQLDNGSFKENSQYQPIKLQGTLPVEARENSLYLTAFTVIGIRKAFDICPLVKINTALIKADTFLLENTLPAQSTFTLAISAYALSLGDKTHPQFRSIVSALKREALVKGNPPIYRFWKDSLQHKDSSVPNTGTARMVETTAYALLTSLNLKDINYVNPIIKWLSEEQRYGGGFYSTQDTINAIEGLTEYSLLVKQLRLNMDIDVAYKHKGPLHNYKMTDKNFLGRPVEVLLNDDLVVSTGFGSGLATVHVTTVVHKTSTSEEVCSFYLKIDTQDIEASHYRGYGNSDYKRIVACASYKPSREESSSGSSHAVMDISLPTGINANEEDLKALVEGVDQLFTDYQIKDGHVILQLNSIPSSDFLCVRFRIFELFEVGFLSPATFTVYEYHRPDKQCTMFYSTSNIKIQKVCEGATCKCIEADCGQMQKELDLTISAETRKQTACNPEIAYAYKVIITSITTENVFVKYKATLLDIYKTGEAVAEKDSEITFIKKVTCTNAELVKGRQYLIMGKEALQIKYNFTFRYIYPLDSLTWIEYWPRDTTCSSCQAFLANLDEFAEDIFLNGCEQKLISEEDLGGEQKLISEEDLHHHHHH


Tests used:
monkey C5-mmh = molecular target: T1, monkey C5-mmh; assay: SPR, mAb captured via anti-hFc, 37C
Description: (§1) Equilibrium dissociation constants (KD values) for C5 binding to purified anti-C5 antibodies were determined using a real-time surface plasmon resonance biosensor assay on a Biacore T200 instrument. The Biacore sensor surface was derivatized by amine coupling with a monoclonal mouse anti-human Fc antibody (GE Healthcare, # BR-1008-39) to capture anti-C5 antibodies expressed with human Fc constant regions. Biacore binding studies were conducted in HBST running buffer (0.01M HEPES pH 7.4, 0.15M NaCl, 3 mM EDTA, 0.05% v/v Surfactant P20).
(§2) Human C5 was obtained from a commercial source (EMD). Other C5 reagents were expressed with a C-terminal myc-myc-hexahistidine tag (subsequently referred to as C5-mmh). […] Association of all the C5 reagents to each of the captured monoclonal antibodies was monitored for 3 minutes and their dissociation in HBST running buffer was monitored for 8 minutes. All the binding kinetics experiments were performed at either 25° C. or 37° C. Kinetic association (kₐ) and dissociation (kd) rate constants were determined by fitting the real-time sensorgrams to a 1:1 binding model using Scrubber 2.0c curve fitting software. Binding dissociation equilibrium constants (KD) and dissociative half-lives (t %) were calculated from the kinetic rate constants as: KD (M)=kd/kₐ and t_{1/2} (min)=In2/(60×kd)

human C5 R885H-mmh [1] = molecular target: T2, human C5 R885H-mmh (human, UniProt P01031 19-1676); assay: SPR, mAb captured via anti-hFc, 37C
T2 construct: also called human C5 variant R885H
Description: as §1, §2

human C5 R885C-mmh [2] = molecular target: T3, human C5 R885C-mmh (human, UniProt P01031 19-1676); assay: SPR, mAb captured via anti-hFc, 37C
T3 construct: also called human C5 variant R885C
Description: as §1, §2

human C5 R885H-mmh [3] = molecular target: T2, human C5 R885H-mmh; assay: SPR, mAb captured via anti-hFc, 25C
Description: as §1, §2

human C5 R885C-mmh [4] = molecular target: T3, human C5 R885C-mmh; assay: SPR, mAb captured via anti-hFc, 25C
Description: as §1, §2

human C5 = molecular target: T4, human C5 (human, UniProt P01031 19-1676); assay: SPR, mAb captured via anti-hFc, dissociation at pH7.4 vs pH6.0, 25C
T4 construct: Bought human C5 (EMD #204888, said elsewhere to be purified from plasma); also called hC5; complement component 5
Description: Effect of pH on the rate of dissociation of recombinant human C5 bound to purified anti-C5 monoclonal antibodies was determined using a real-time surface plasmon resonance biosensor using a Biacore T200 instrument. The Biacore sensor surface was first derivatized by amine coupling with a monoclonal mouse anti-human Fc antibody (GE, # BR-1008-39) to capture anti-C5 monoclonal antibodies expressed with human IgG4 Fc. All Biacore binding studies were performed using two running buffers PBS-T, pH7.4 (0.01M Na₂HPO₄/NaH₂PO₄, 0.15M NaCl, 0.05% v/v Tween-20, adjusted to pH7.4) and PBS-T, pH6.0 (0.01M Na₂HPO₄/NaH₂PO₄, 0.15M NaCl, 0.05% v/v Tween-20, adjusted to pH6.0). […] Binding dissociative half-lives (t %) were calculated from kd as: […]

Binder	100 nM monkey C5-mmh Bound (RU) (monkey C5-mmh)	Kd (monkey C5-mmh)	koff (monkey C5-mmh)	kon (monkey C5-mmh)	t1/2 (monkey C5-mmh)	100 nM Human C5 R885H-mmh Bound (RU) (human C5 R885H-mmh [1])	Kd (human C5 R885H-mmh [1])	koff (human C5 R885H-mmh [1])	kon (human C5 R885H-mmh [1])	t1/2 (human C5 R885H-mmh [1])	100 nM Human C5 R885C-mmh Bound (RU) (human C5 R885C-mmh [2])	Kd (human C5 R885C-mmh [2])	koff (human C5 R885C-mmh [2])	kon (human C5 R885C-mmh [2])	t1/2 (human C5 R885C-mmh [2])	100 nM Human C5 R885H-mmh Bound (RU) (human C5 R885H-mmh [3])	Kd (human C5 R885H-mmh [3])	koff (human C5 R885H-mmh [3])	kon (human C5 R885H-mmh [3])	t1/2 (human C5 R885H-mmh [3])	further results
H4H12167P (antibody, human IgG4, V domains shown, Human IgG4 Fc with S108P hinge mutation (H4H)) VH: QVQLVESGGGLVKPGGSLRLSCAASGFTFSDSYMSWIRQAPGKGLEWISYIGSSGNTFYYADSVKGRFTISRDNANNLLYLQMTSLRAEDTAVYYCAREEGDFWSAVDSWGQGTLVTVSS VL: DIQLTQSPSFLSASVGDRVTITCWASQGISSYLAWYQQKPGKAPKLLIHTASTLQSGVPSRFSGSGSGTEFTLTISNLQPEDFATYYCQQLNSYPFTFGPGTKVDIK	146 RU	0.539 nM	0.000289 s⁻¹	537000 M⁻¹ s⁻¹	40 min	65 RU	2.91 nM	0.00257 s⁻¹	881000 M⁻¹ s⁻¹	5 min	64 RU	3.64 nM	0.00249 s⁻¹	684000 M⁻¹ s⁻¹	5 min	187 RU	0.433 nM	0.000298 s⁻¹	689000 M⁻¹ s⁻¹	39 min	100 nM Human C5 R885C-mmh Bound (RU) (human C5 R885C-mmh [4]): 163 RU; Kd (human C5 R885C-mmh [4]): 0.413 nM; koff (human C5 R885C-mmh [4]): 0.000294 s⁻¹; kon (human C5 R885C-mmh [4]): 711000 M⁻¹ s⁻¹; t1/2 (human C5 R885C-mmh [4]): 39 min; t1/2 Ratio pH7.4/pH6.0 (human C5): 0.6
H4H12175P (antibody, human IgG4, V domains shown, Human IgG4 Fc with S108P hinge mutation (H4H)) VH: EVQLVESGGGVVQPGGSLRLSCAASGFTFNDYAMHWVRQAPGKGLEWVSLISGDGGNTYYADSVKGRLTISRDNSKNSLYLQMNSLRTEDTALYYCAKDKGWNFGYFDLWGRGTLVTVSS VL: DIQMTQSPSSLSTSVGDRVTITCRASQNIDTYLNWYQQKPGKAPKLLIYDASSLQSGVPSRFSGSGSGTDFTLTITSLQPEDFATYYCQQNDNILHPLTFGGGTKVEIK	74 RU	15.6 nM	0.00276 s⁻¹	177000 M⁻¹ s⁻¹	4 min	30 RU	69.4 nM	0.0095 s⁻¹	137000 M⁻¹ s⁻¹	1 min	4 RU	159 nM	0.0179 s⁻¹	112000 M⁻¹ s⁻¹	1 min	207 RU	10.9 nM	0.00198 s⁻¹	181000 M⁻¹ s⁻¹	6 min	100 nM Human C5 R885C-mmh Bound (RU) (human C5 R885C-mmh [4]): 128 RU; Kd (human C5 R885C-mmh [4]): 190 nM; koff (human C5 R885C-mmh [4]): 0.0155 s⁻¹; kon (human C5 R885C-mmh [4]): 81800 M⁻¹ s⁻¹; t1/2 (human C5 R885C-mmh [4]): 1 min; t1/2 Ratio pH7.4/pH6.0 (human C5): 0.9
H4H12163P (antibody, human IgG4, V domains shown, Human IgG4 Fc with S108P hinge mutation (H4H)) VH: EVQLVESGGDLVQPGGSLRLSCAASGFTFSSYAMNWVRQGPGKGLEWVSAISGRGDSTYYADSVKGRLTISRDNSKNTLYLQMNSLRAEDTAVYYCVKEGEQLVYWYFDLWGRGTLVTVSS VL: DIQMTQSPSSLSASVGDRVTITCRASQTISNFLHWYQQKPGKAPKLLIYAASSLQSGVPSRFSGSGSGTDFTLTISSLQPEDFSTYFCQQSYTTPLTFGGGTKVEIK	129 RU	3.2 nM	0.00125 s⁻¹	390000 M⁻¹ s⁻¹	9 min	85 RU	4 nM	0.0029 s⁻¹	724000 M⁻¹ s⁻¹	4 min	83 RU	4.97 nM	0.00281 s⁻¹	566000 M⁻¹ s⁻¹	4 min	214 RU	0.646 nM	0.000434 s⁻¹	672000 M⁻¹ s⁻¹	27 min	100 nM Human C5 R885C-mmh Bound (RU) (human C5 R885C-mmh [4]): 211 RU; Kd (human C5 R885C-mmh [4]): 0.858 nM; koff (human C5 R885C-mmh [4]): 0.000432 s⁻¹; kon (human C5 R885C-mmh [4]): 504000 M⁻¹ s⁻¹; t1/2 (human C5 R885C-mmh [4]): 27 min; t1/2 Ratio pH7.4/pH6.0 (human C5): 1.2
